In publication PMC6283471 one finds Kd data, which are given here for 2 molecules.

Experiment [1] deals with CCR5 on HEK-R5 cells (HEK 293T cells stably expressing CCR5) (UniProt P51681). As to the kind of experiment: radioligand binding.
In experiment [2] the target is FLAG/SNAP-tagged wild-type (WT) CCR5, P51681. Nature of the experiment: radioligand binding. Particulars: remark: other sources report otherwise.

As to “gp120 Bx08-sCD4 complex (from UniProt P01730)”, the Kd in experiment [1] came out at 14.1 nM.

B1: 125I-CCL3, P10147 24-92 (ligand)
chain: SLAADTPTACCFSYTSRQIPQNFIADYFETSSQCSKPGVIFLTKRSRQVCADPSEEWVQKYVSDLELSA
modifications: ends and bridges not checked; also: 125I-labelled, site not given here
In experiment [2], B1 returned a Kd of 0.36 nM.
